molecular target: T1, human GPC3 (human, UniProt P51654 25-563); assay: SPR
T1 construct: range 25-563; soluble analyte; also called soluble human GPC3; glypican 3
T1 sequence (P51654 25-563 limits assumed): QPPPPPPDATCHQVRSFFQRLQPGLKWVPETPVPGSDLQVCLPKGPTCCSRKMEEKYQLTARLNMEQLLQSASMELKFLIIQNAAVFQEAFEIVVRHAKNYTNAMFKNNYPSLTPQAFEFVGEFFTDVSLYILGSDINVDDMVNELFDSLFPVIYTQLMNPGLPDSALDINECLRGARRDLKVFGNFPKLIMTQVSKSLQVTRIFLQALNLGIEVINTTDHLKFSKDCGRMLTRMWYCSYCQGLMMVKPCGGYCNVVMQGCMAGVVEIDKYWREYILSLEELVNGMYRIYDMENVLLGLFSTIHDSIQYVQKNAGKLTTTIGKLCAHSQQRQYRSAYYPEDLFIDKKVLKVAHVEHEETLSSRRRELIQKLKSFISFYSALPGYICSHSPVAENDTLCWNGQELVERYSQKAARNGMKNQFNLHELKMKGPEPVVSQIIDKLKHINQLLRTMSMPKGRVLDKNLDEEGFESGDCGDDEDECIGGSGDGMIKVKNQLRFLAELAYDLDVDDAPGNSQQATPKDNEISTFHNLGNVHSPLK

Binder | Kd
H0610-G1dh/none-Hi-Kn010G3/L0079-k0 (antibody, V domains shown, one-arm) VH: QVQLVQSGAEVKKPGASVKVSCKASGYTFTDYEMHWIRQPPGQGLEWIGAIDGKTPDTAYSQKFKGRVTLTADKSTSTAYMELSSLTSEDTAVYYCTRFYSYTYWGQGTLVTVSS VL: DIVMTQSPLSLPVTPGEPASISCRSSQSLVHSNRNTYIHWYQQKPGQAPRLLIYKVSNRFSGVPDRFSGSGSGTDFTLKISRVEAEDVGVYYCGQGTQVPYTFGQGTKLEIK | 4.23 nM
H0610-G1dh/none-Hi-Kn010G3/L0117-k0 (antibody, V domains shown, one-arm) VH: QVQLVQSGAEVKKPGASVKVSCKASGYTFTDYEMHWIRQPPGQGLEWIGAIDGKTPDTAYSQKFKGRVTLTADKSTSTAYMELSSLTSEDTAVYYCTRFYSYTYWGQGTLVTVSS VL: DIVMTQSPLSLPVTPGEPASISCRSSQSLVHSNRNTYLHWYQQKPGQAPRLLIYKVSNRASGVPDRFSGSGSGTDFTLKISRVEAEDVGVYYCGQGTQVPYTFGQGTKLEIK | 4.92 nM
H0610-G1dh/none-Hi-Kn010G3/L0115-k0 (antibody, V domains shown, one-arm) VH: QVQLVQSGAEVKKPGASVKVSCKASGYTFTDYEMHWIRQPPGQGLEWIGAIDGKTPDTAYSQKFKGRVTLTADKSTSTAYMELSSLTSEDTAVYYCTRFYSYTYWGQGTLVTVSS VL: DIVMTQSPLSLPVTPGEPASISCRSSQSLVHSNRNTYLHWYQQKPGQAPRLLIYKVSWRFSGVPDRFSGSGSGTDFTLKISRVEAEDVGVYYCGQGTQVPYTFGQGTKLEIK | 4.34 nM
H0610-G1dh/none-Hi-Kn010G3/L0089-k0 (antibody, V domains shown, one-arm) VH: QVQLVQSGAEVKKPGASVKVSCKASGYTFTDYEMHWIRQPPGQGLEWIGAIDGKTPDTAYSQKFKGRVTLTADKSTSTAYMELSSLTSEDTAVYYCTRFYSYTYWGQGTLVTVSS VL: DIVMTQSPLSLPVTPGEPASISCRSSQSLVHSNRNTYLLWYQQKPGQAPRLLIYKVSNRFSGVPDRFSGSGSGTDFTLKISRVEAEDVGVYYCGQGTQVPYTFGQGTKLEIK | 5.24 nM
H0610-G1dh/none-Hi-Kn010G3/L0091-k0 (antibody, V domains shown, one-arm) VH: QVQLVQSGAEVKKPGASVKVSCKASGYTFTDYEMHWIRQPPGQGLEWIGAIDGKTPDTAYSQKFKGRVTLTADKSTSTAYMELSSLTSEDTAVYYCTRFYSYTYWGQGTLVTVSS VL: DIVMTQSPLSLPVTPGEPASISCRSSQSLVHSNRNTYLNWYQQKPGQAPRLLIYKVSNRFSGVPDRFSGSGSGTDFTLKISRVEAEDVGVYYCGQGTQVPYTFGQGTKLEIK | 5.43 nM
H0610-G1dh/none-Hi-Kn010G3/L0113-k0 (antibody, V domains shown, one-arm) VH: QVQLVQSGAEVKKPGASVKVSCKASGYTFTDYEMHWIRQPPGQGLEWIGAIDGKTPDTAYSQKFKGRVTLTADKSTSTAYMELSSLTSEDTAVYYCTRFYSYTYWGQGTLVTVSS VL: DIVMTQSPLSLPVTPGEPASISCRSSQSLVHSNRNTYLHWYQQKPGQAPRLLIYKVSTRFSGVPDRFSGSGSGTDFTLKISRVEAEDVGVYYCGQGTQVPYTFGQGTKLEIK | 4.82 nM
H0610-G1dh/none-Hi-Kn010G3/L0106-k0 (antibody, V domains shown, one-arm) VH: QVQLVQSGAEVKKPGASVKVSCKASGYTFTDYEMHWIRQPPGQGLEWIGAIDGKTPDTAYSQKFKGRVTLTADKSTSTAYMELSSLTSEDTAVYYCTRFYSYTYWGQGTLVTVSS VL: DIVMTQSPLSLPVTPGEPASISCRSSQSLVHSNRNTYLHWYQQKPGQAPRLLIYKVSHRFSGVPDRFSGSGSGTDFTLKISRVEAEDVGVYYCGQGTQVPYTFGQGTKLEIK | 5.66 nM
H0610-G1dh/none-Hi-Kn010G3/L0120-k0 (antibody, V domains shown, one-arm) VH: QVQLVQSGAEVKKPGASVKVSCKASGYTFTDYEMHWIRQPPGQGLEWIGAIDGKTPDTAYSQKFKGRVTLTADKSTSTAYMELSSLTSEDTAVYYCTRFYSYTYWGQGTLVTVSS VL: DIVMTQSPLSLPVTPGEPASISCRSSQSLVHSNRNTYLHWYQQKPGQAPRLLIYKVSNRGSGVPDRFSGSGSGTDFTLKISRVEAEDVGVYYCGQGTQVPYTFGQGTKLEIK | 4.54 nM
H0610-G1dh/none-Hi-Kn010G3/L0082-k0 (antibody, V domains shown, one-arm) VH: QVQLVQSGAEVKKPGASVKVSCKASGYTFTDYEMHWIRQPPGQGLEWIGAIDGKTPDTAYSQKFKGRVTLTADKSTSTAYMELSSLTSEDTAVYYCTRFYSYTYWGQGTLVTVSS VL: DIVMTQSPLSLPVTPGEPASISCRSSQSLVHSNRNTYVHWYQQKPGQAPRLLIYKVSNRFSGVPDRFSGSGSGTDFTLKISRVEAEDVGVYYCGQGTQVPYTFGQGTKLEIK | 3.43 nM
H0610-G1dh/none-Hi-Kn010G3/L0093-k0 (antibody, V domains shown, one-arm) VH: QVQLVQSGAEVKKPGASVKVSCKASGYTFTDYEMHWIRQPPGQGLEWIGAIDGKTPDTAYSQKFKGRVTLTADKSTSTAYMELSSLTSEDTAVYYCTRFYSYTYWGQGTLVTVSS VL: DIVMTQSPLSLPVTPGEPASISCRSSQSLVHSNRNTYLQWYQQKPGQAPRLLIYKVSNRFSGVPDRFSGSGSGTDFTLKISRVEAEDVGVYYCGQGTQVPYTFGQGTKLEIK | 0.106 nM
H0610-G1dh/none-Hi-Kn010G3/L0109-k0 (antibody, V domains shown, one-arm) VH: QVQLVQSGAEVKKPGASVKVSCKASGYTFTDYEMHWIRQPPGQGLEWIGAIDGKTPDTAYSQKFKGRVTLTADKSTSTAYMELSSLTSEDTAVYYCTRFYSYTYWGQGTLVTVSS VL: DIVMTQSPLSLPVTPGEPASISCRSSQSLVHSNRNTYLHWYQQKPGQAPRLLIYKVSMRFSGVPDRFSGSGSGTDFTLKISRVEAEDVGVYYCGQGTQVPYTFGQGTKLEIK | 5.7 nM
H0610-G1dh/none-Hi-Kn010G3/L0107-k0 (antibody, V domains shown, one-arm) VH: QVQLVQSGAEVKKPGASVKVSCKASGYTFTDYEMHWIRQPPGQGLEWIGAIDGKTPDTAYSQKFKGRVTLTADKSTSTAYMELSSLTSEDTAVYYCTRFYSYTYWGQGTLVTVSS VL: DIVMTQSPLSLPVTPGEPASISCRSSQSLVHSNRNTYLHWYQQKPGQAPRLLIYKVSIRFSGVPDRFSGSGSGTDFTLKISRVEAEDVGVYYCGQGTQVPYTFGQGTKLEIK | 4.38 nM
H0610-G1dh/none-Hi-Kn010G3/L0090-k0 (antibody, V domains shown, one-arm) VH: QVQLVQSGAEVKKPGASVKVSCKASGYTFTDYEMHWIRQPPGQGLEWIGAIDGKTPDTAYSQKFKGRVTLTADKSTSTAYMELSSLTSEDTAVYYCTRFYSYTYWGQGTLVTVSS VL: DIVMTQSPLSLPVTPGEPASISCRSSQSLVHSNRNTYLMWYQQKPGQAPRLLIYKVSNRFSGVPDRFSGSGSGTDFTLKISRVEAEDVGVYYCGQGTQVPYTFGQGTKLEIK | 1.12 nM
H0610-G1dh/none-Hi-Kn010G3/L0104-k0 (antibody, V domains shown, one-arm) VH: QVQLVQSGAEVKKPGASVKVSCKASGYTFTDYEMHWIRQPPGQGLEWIGAIDGKTPDTAYSQKFKGRVTLTADKSTSTAYMELSSLTSEDTAVYYCTRFYSYTYWGQGTLVTVSS VL: DIVMTQSPLSLPVTPGEPASISCRSSQSLVHSNRNTYLHWYQQKPGQAPRLLIYKVSFRFSGVPDRFSGSGSGTDFTLKISRVEAEDVGVYYCGQGTQVPYTFGQGTKLEIK | 5.9 nM
H0610-G1dh/none-Hi-Kn010G3/L0085-k0 (antibody, V domains shown, one-arm) VH: QVQLVQSGAEVKKPGASVKVSCKASGYTFTDYEMHWIRQPPGQGLEWIGAIDGKTPDTAYSQKFKGRVTLTADKSTSTAYMELSSLTSEDTAVYYCTRFYSYTYWGQGTLVTVSS VL: DIVMTQSPLSLPVTPGEPASISCRSSQSLVHSNRNTYLEWYQQKPGQAPRLLIYKVSNRFSGVPDRFSGSGSGTDFTLKISRVEAEDVGVYYCGQGTQVPYTFGQGTKLEIK | 1.17 nM

Now from value to binder:

Kd | Binder
5.08 nM | H0610-G1dh/none-Hi-Kn010G3/L0123-k0 (antibody, V domains shown, one-arm) VH: QVQLVQSGAEVKKPGASVKVSCKASGYTFTDYEMHWIRQPPGQGLEWIGAIDGKTPDTAYSQKFKGRVTLTADKSTSTAYMELSSLTSEDTAVYYCTRFYSYTYWGQGTLVTVSS VL: DIVMTQSPLSLPVTPGEPASISCRSSQSLVHSNRNTYLHWYQQKPGQAPRLLIYKVSNRKSGVPDRFSGSGSGTDFTLKISRVEAEDVGVYYCGQGTQVPYTFGQGTKLEIK
3.12 nM | H0610-G1dh/none-Hi-Kn010G3/L0127-k0 (antibody, V domains shown, one-arm) VH: QVQLVQSGAEVKKPGASVKVSCKASGYTFTDYEMHWIRQPPGQGLEWIGAIDGKTPDTAYSQKFKGRVTLTADKSTSTAYMELSSLTSEDTAVYYCTRFYSYTYWGQGTLVTVSS VL: DIVMTQSPLSLPVTPGEPASISCRSSQSLVHSNRNTYLHWYQQKPGQAPRLLIYKVSNRPSGVPDRFSGSGSGTDFTLKISRVEAEDVGVYYCGQGTQVPYTFGQGTKLEIK
2.42 nM | H0610-G1dh/none-Hi-Kn010G3/L0122-k0 (antibody, V domains shown, one-arm) VH: QVQLVQSGAEVKKPGASVKVSCKASGYTFTDYEMHWIRQPPGQGLEWIGAIDGKTPDTAYSQKFKGRVTLTADKSTSTAYMELSSLTSEDTAVYYCTRFYSYTYWGQGTLVTVSS VL: DIVMTQSPLSLPVTPGEPASISCRSSQSLVHSNRNTYLHWYQQKPGQAPRLLIYKVSNRISGVPDRFSGSGSGTDFTLKISRVEAEDVGVYYCGQGTQVPYTFGQGTKLEIK
1.71 nM | H0610-G1dh/none-Hi-Kn010G3/L0125-k0 (antibody, V domains shown, one-arm) VH: QVQLVQSGAEVKKPGASVKVSCKASGYTFTDYEMHWIRQPPGQGLEWIGAIDGKTPDTAYSQKFKGRVTLTADKSTSTAYMELSSLTSEDTAVYYCTRFYSYTYWGQGTLVTVSS VL: DIVMTQSPLSLPVTPGEPASISCRSSQSLVHSNRNTYLHWYQQKPGQAPRLLIYKVSNRMSGVPDRFSGSGSGTDFTLKISRVEAEDVGVYYCGQGTQVPYTFGQGTKLEIK
0.972 nM | H0610-G1dh/none-Hi-Kn010G3/L0124-k0 (antibody, V domains shown, one-arm) VH: QVQLVQSGAEVKKPGASVKVSCKASGYTFTDYEMHWIRQPPGQGLEWIGAIDGKTPDTAYSQKFKGRVTLTADKSTSTAYMELSSLTSEDTAVYYCTRFYSYTYWGQGTLVTVSS VL: DIVMTQSPLSLPVTPGEPASISCRSSQSLVHSNRNTYLHWYQQKPGQAPRLLIYKVSNRLSGVPDRFSGSGSGTDFTLKISRVEAEDVGVYYCGQGTQVPYTFGQGTKLEIK
5.62 nM | H0610-G1dh/none-Hi-Kn010G3/L0126-k0 (antibody, V domains shown, one-arm) VH: QVQLVQSGAEVKKPGASVKVSCKASGYTFTDYEMHWIRQPPGQGLEWIGAIDGKTPDTAYSQKFKGRVTLTADKSTSTAYMELSSLTSEDTAVYYCTRFYSYTYWGQGTLVTVSS VL: DIVMTQSPLSLPVTPGEPASISCRSSQSLVHSNRNTYLHWYQQKPGQAPRLLIYKVSNRNSGVPDRFSGSGSGTDFTLKISRVEAEDVGVYYCGQGTQVPYTFGQGTKLEIK
5.28 nM | H0610-G1dh/none-Hi-Kn010G3/L0129-k0 (antibody, V domains shown, one-arm) VH: QVQLVQSGAEVKKPGASVKVSCKASGYTFTDYEMHWIRQPPGQGLEWIGAIDGKTPDTAYSQKFKGRVTLTADKSTSTAYMELSSLTSEDTAVYYCTRFYSYTYWGQGTLVTVSS VL: DIVMTQSPLSLPVTPGEPASISCRSSQSLVHSNRNTYLHWYQQKPGQAPRLLIYKVSNRRSGVPDRFSGSGSGTDFTLKISRVEAEDVGVYYCGQGTQVPYTFGQGTKLEIK

Source: US20250066503A1, “CELL INJURY INDUCING THERAPEUTIC DRUG FOR USE IN CANCER THERAPY” (CHUGAI SEIYAKU KABUSHIKI KAISHA, priority 2016, published 2025)
